The values below come from paper PMC4003566.

The target in this experiment is human α7 nAChR TM domain (human). The experiment in a line: SEC-MALS.

A word on the stoichiometry N: it is the number of molecules, sites or subunits per partner or assembly.

As for “human α7 nAChR TM domain (domain or fragment)”, the stoichiometry N was determined as 5.
